The record followed here is patent US20230340128A1 (Xencor, published 2023).

The Kd is the equilibrium constant for the complex coming apart. A high value points to a looser complex. Broadly, the koff is the first-order rate constant of dissociation. Broadly, the kon is the rate constant with which the complex forms. A higher kon goes with fast association. One may read the EC50 (read off the curve) as the midpoint of the concentration-response curve. Higher therefore signals lower potency in that assay.

Test [1] has as its target T1, human mesothelin (MSLN) (human, UniProt Q13421 296-580, limits assumed).
T1 construct: Antigen of the Octet KD values
The test is described as follows: BLI (Octet), multiple concentrations, bsAb in 1+1 Fab-scFv-Fc format.

The target in test [2] is T1, human mesothelin (MSLN). The test is described as follows: KD quoted in the FIG. 25 legend; Octet (BLI) per FIGS. 20-21.
The target in test [3] is MSLN on OVCAR8 cells (~90K MSLN antigens/cell) (UniProt Q13421 296-598). Kind of test: binding to OVCAR8 cells, MFI APC against mAb concentration.
Test [4] has as its target T1, human mesothelin (MSLN). The test is described as follows: BLI (Octet), multiple concentrations, bsAb in 1+1 Fab-scFv-Fc format; lower table, column 'human MSLN (M)'.
The target of test [5] is T2, MSLN on OVCAR8 cells (~90K MSLN antigens/cell) (UniProt Q13421 296-598).
T2 construct: whole, on cells; Endogenous expression on a cancer cell line
The test is described as follows: flow cytometry on OVCAR8 cells, 1 h at 4 C, anti-human-Fc A647 secondary. The protocol: In this experiment, 50,000 OVCAR8 cells (˜90K MSLN antigens/cell) were seeded per well in a plate. Anti-human-Fc secondary (A647) was added for 30 min at 4° C., and binding was assessed via FACs. FIG. 39C depicts that the CD28×MSLN bsAbs in neither 1+1-Fab-scFv format nor the 2+1 mAb-scFv format antibodies show any significant off target binding. In this experiment, 50,000 SKOV3 cells (˜9K MSLN antigens/cell) were seeded per well in a plate. Anti-human-Fc secondary (A647) was added for 30 min at 4° C., and binding was assessed via FACs.
In order to assess the binding of MSLN×CD28 bsAbs in different formats, an experiment was conducted in which 50,000 OVCAR8 cells (˜90K MSLN antigens/cell) were seeded per well in a plate. Anti-human-Fc secondary (A647) was added for 30 min at 4° C., and binding was assessed via FACs.
For orientation: A flow cytometer gives signals particle by particle.

A further test addresses T3, human CD28 (human, UniProt P10747 19-152, limits assumed).
T3 construct: also called Cluster of Differentiation 28; Tp44
Kind of test: label in the legend box: nominal affinity of the CD28 binding domain (paragraph 422 calls such label values KD); method not stated on the sheet.

Test [6] has as its target T1, human mesothelin (MSLN). The test is described as follows: label in the legend box: nominal affinity of the MSLN binding domain (paragraph 422 calls such label values KD); method not stated on the sheet.

B1: XENP32937 (bispecific antibody)
chain 1: QVQLVQSGAEVKKPGASVKVSCKASGYTFTSYWMHWVRQAPGQGLEWMGMIHPNSDNTIYYQKFQGRVTMTVDKSISTAYMELSRLRSDDTAVYYCAIIITPVVPKFDYWGQGTLVTVSSASTKGPSVFPLAPSSKSTSGGTAALGCLVKDYFPEPVTVSWNSGALTSGVHTFPAVLQSSGLYSLSSVVTVPSSSLGTQTYICNVNHKPSDTKVDKKVEPKSCDKTHTCPPCPAPPVAGPSVFLFPPKPKDTLMISRTPEVTCVVVDVKHEDPEVKFNWYVDGVEVHNAKTKPREEEYNSTYRVVSVLTVLHQDWLNGKEYKCKVSNKALPAPIEKTISKAKGQPREPQVYTLPPSREEMTKNQVSLTCDVSGFYPSDIAVEWESDGQPENNYKTTPPVLDSDGSFFLYSKLTVDKSRWEQGDVFSCSVMHEALHNHYTQKSLSLSPGK
chain 2: not shown
chain 3: DIVMTQSPDSLAVSLGERATINCKASHDVGTSVAWYQQKPGQSPKLLIYWASTRHTGVPDRFTGSGSGTDFTLTISSLQAEDVAVYFCQQYYSYPLTFGAGTKLEIKRTVAAPSVFIFPPSDEQLKSGTASVVCLLNNFYPREAKVQWKVDNALQSGNSQESVTEQDSKDSTYSLSSTLTLSKADYEKHKVYACEVTHQGLSSPVTKSFNRGEC
As for B1, in the test with human mesothelin (MSLN) [1], the Kd was 10.2 nM, the koff is 0.00822 s⁻¹ and the kon was found to be 803000 M⁻¹ s⁻¹.

B2: XENP31717 (bispecific antibody)
chain 1: QVQLVQSGAEVKKPGASVKVSCKASGYTFTSYWMHWVRQAPGQGLEWMGMIHPNSDNTIYYEKFQGRVTMTVDKSISTAYMELSRLRSDDTAVYYCAIIITPVVPKFDYWGQGTLVTVSSASTKGPSVFPLAPSSKSTSGGTAALGCLVKDYFPEPVTVSWNSGALTSGVHTFPAVLQSSGLYSLSSVVTVPSSSLGTQTYICNVNHKPSDTKVDKKVEPKSCDKTHTCPPCPAPPVAGPSVFLFPPKPKDTLMISRTPEVTCVVVDVKHEDPEVKFNWYVDGVEVHNAKTKPREEEYNSTYRVVSVLTVLHQDWLNGKEYKCKVSNKALPAPIEKTISKAKGQPREPQVYTLPPSREEMTKNQVSLTCDVSGFYPSDIAVEWESDGQPENNYKTTPPVLDSDGSFFLYSKLTVDKSRWEQGDVFSCSVMHEALHNHYTQKSLSLSPGK
chain 2: QVQLVQSGAEVKKPGASVKVSCKASGYTFTSYWMHWVRQAPGQGLEWMGMIHPNSDNTIYYEKFQGRVTMTVDKSISTAYMELSRLRSDDTAVYYCAIIITPVVPKFDYWGQGTLVTVSSASTKGPSVFPLAPSSKSTSGGTAALGCLVKDYFPEPVTVSWNSGALTSGVHTFPAVLQSSGLYSLSSVVTVPSSSLGTQTYICNVNHKPSNTKVDKKVEPKSCGGGGSGGGGSQAVVTQEPSLTVSPGGTVTLTCGSSTGAVTTSNYANWVQQKPGKSPRGLIGGTNKRAPGVPARFSGSLLGGKAALTISGAQPEDEADYYCALWYSNHWVFGGGTKLTVLGKPGSGKPGSGKPGSGKPGSEVQLVESGGGLVQPGGSLRLSCAASGFTFSTYAMNWVRQAPGKGLEWVGRIRSKANNYATYYADSVKGRFTISRDDSKNTLYLQMNSLRAEDTAVYYCVRHGNFGDSYVSWFAYWGQGTLVTVSSGGGGSGGGGSKTHTCPPCPAPPVAGPSVFLFPPKPKDTLMISRTPEVTCVVVDVKHEDPEVKFNWYVDGVEVHNAKTKPREEQYNSTYRVVSVLTVLHQDWLNGKEYKCKVSNKALPAPIEKTISKAKGQPREPQVYTLPPSREQMTKNQVKLTCLVKGFYPSDIAVEWESNGQPENNYKTTPPVLDSDGSFFLYSKLTVDKSRWQQGNVFSCSVMHEALHNHYTQKSLSLSPGK
chain 3: DIVMTQSPDSLAVSLGERATINCKASHDVGTSVAWYQQKPGQSPKLLIYWASTRHTGVPDRFTGSGSGTDFTLTISSLQAEDVAVYFCQQYSSYPLTFGAGTKLEIKRTVAAPSVFIFPPSDEQLKSGTASVVCLLNNFYPREAKVQWKVDNALQSGNSQESVTEQDSKDSTYSLSSTLTLSKADYEKHKVYACEVTHQGLSSPVTKSFNRGEC
Regarding B2, the affinity with human mesothelin (MSLN) [2], expressed as Kd, was 0.28 nM. Further, in test [3], the concentration giving a half-maximal response (EC50 (read off the curve)) is roughly 0.04 µg/mL.

B3: XENP31697 (bispecific antibody)
chain 1: QVQLVQSGAEVKKPGASVKVSCKASGYTFTSYWMHWVRQAPGQGLEWMGMIHPNSDNTIYYEKFQGRVTMTVDKSISTAYMELSRLRSDDTAVYYCAIIITPVVPKFDYWGQGTLVTVSSASTKGPSVFPLAPSSKSTSGGTAALGCLVKDYFPEPVTVSWNSGALTSGVHTFPAVLQSSGLYSLSSVVTVPSSSLGTQTYICNVNHKPSDTKVDKKVEPKSCDKTHTCPPCPAPPVAGPSVFLFPPKPKDTLMISRTPEVTCVVVDVKHEDPEVKFNWYVDGVEVHNAKTKPREEEYNSTYRVVSVLTVLHQDWLNGKEYKCKVSNKALPAPIEKTISKAKGQPREPQVYTLPPSREEMTKNQVSLTCDVSGFYPSDIAVEWESDGQPENNYKTTPPVLDSDGSFFLYSKLTVDKSRWEQGDVFSCSVMHEALHNHYTQKSLSLSPGK
chain 2: not shown
chain 3: DIVMTQSPDSLAVSLGERATINCKASHDVGTSVAWYQQKPGQSPKLLIYWASTRHTGVPDRFTGSGSGTDFTLTISSLQAEDVAVYFCQQYSSYPLTFGAGTKLEIKRTVAAPSVFIFPPSDEQLKSGTASVVCLLNNFYPREAKVQWKVDNALQSGNSQESVTEQDSKDSTYSLSSTLTLSKADYEKHKVYACEVTHQGLSSPVTKSFNRGEC
In the case of B3, in test [3], the “EC50 (read off the curve)” value is roughly 0.07 µg/mL. Moreover, in the test with human mesothelin (MSLN) [4], the equilibrium dissociation constant (Kd) was 0.28 nM.

B4: XENP44475 (bispecific antibody)
heavy: QVQLVQSGAEVKKPGASVKVSCKASGYTFTSYWMHWVRQAPGQGLEWMGMIHPNSDNTIYYEKFQGRVTMTVDKSISTAYMELSRLRSDDTAVYYCAIIITPVVPKFDYWGQGTLVTVSSASTKGPSVFPLAPSSKSTSGGTAALGCLVKDYFPEPVTVSWNSGALTSGVHTFPAVLQSSGLYSLSSVVTVPSSSLGTQTYICNVNHKPSDTKVDKKVEPKSCGGGGSGGGGSQVQLVQSGAEVKKPGASVKVSCKASGYTFTSYWMHWVRQAPGQGLEWMGMIHPNSDNTIYYEKFQGRVTMTVDKSISTAYMELSRLRSDDTAVYYCAIIITPVVPKFDYWGQGTLVTVSSASTKGPSVFPLAPSSKSTSGGTAALGCLVKDYFPEPVTVSWNSGALTSGVHTFPAVLQSSGLYSLSSVVTVPSSSLGTQTYICNVNHKPSDTKVDKKVEPKSCDKTHTCPPCPAPPVAGPSVFLFPPKPKDTLMISRTPEVTCVVVDVKHEDPEVKFNWYVDGVEVHNAKTKPREEEYNSTYRVVSVLTVLHQDWLNGKEYKCKVSNKALPAPIEKTISKAKGQPREPQVYTLPPSREEMTKNQVSLTCDVSGFYPSDIAVEWESDGQPENNYKTTPPVLDSDGSFFLYSKLTVDKSRWEQGDVFSCSVLHEALHSHYTQKSLSLSPGK
scFv-Fc: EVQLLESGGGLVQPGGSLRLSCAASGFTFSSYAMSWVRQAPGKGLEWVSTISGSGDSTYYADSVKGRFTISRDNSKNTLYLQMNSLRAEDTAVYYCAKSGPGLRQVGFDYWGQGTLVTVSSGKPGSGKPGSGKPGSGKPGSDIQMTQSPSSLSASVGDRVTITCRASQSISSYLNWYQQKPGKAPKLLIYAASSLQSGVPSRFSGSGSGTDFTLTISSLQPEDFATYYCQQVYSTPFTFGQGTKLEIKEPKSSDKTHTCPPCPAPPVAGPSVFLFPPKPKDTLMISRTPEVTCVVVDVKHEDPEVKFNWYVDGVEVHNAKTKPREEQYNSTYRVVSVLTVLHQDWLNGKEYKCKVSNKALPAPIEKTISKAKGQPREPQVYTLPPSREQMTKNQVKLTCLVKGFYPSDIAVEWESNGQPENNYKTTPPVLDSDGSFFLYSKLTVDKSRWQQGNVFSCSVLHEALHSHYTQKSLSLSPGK
light 1: DIVMTQSPDSLAVSLGERATINCKASHDVGTSVAWYQQKPGQSPKLLIYWASTRHTGVPDRFTGSGSGTDFTLTISSLQAEDVAVYFCQQYSSYPLTFGAGTKLEIKRTVAAPSVFIFPPSDEQLKSGTASVVCLLNNFYPREAKVQWKVDNALQSGNSQESVTEQDSKDSTYSLSSTLTLSKADYEKHKVYACEVTHQGLSSPVTKSFNRGEC
light 2: DIVMTQSPDSLAVSLGERATINCKASHDVGTSVAWYQQKPGQSPKLLIYWASTRHTGVPDRFTGSGSGTDFTLTISSLQAEDVAVYFCQQYSSYPLTFGAGTKLEIKRTVAAPSVFIFPPSDEQLKSGTASVVCLLNNFYPREAKVQWKVDNALQSGNSQESVTEQDSKDSTYSLSSTLTLSKADYEKHKVYACEVTHQGLSSPVTKSFNRGEC
notes: also called XENP44475 MSLN (0.3 nM) x CD28 (180 nM) 2+1 Fab2-Fc x scFv-Fc
As to B4, the “EC50 (read off the curve)” value in test [5] is roughly 0.005 µg/mL. Further, the results for the Kd with human CD28 and in the test with human mesothelin (MSLN) [6] were 180 nM and 0.3 nM, respectively.
